Experiments:
[1] = target: human C1r, full-length enzyme (human) (UniProt P00736)
[2] = target: BAD16-C (residues 204-352, B. afzelii strain PGau) (Borrelia afzelii strain PGau); assay: SPR; Biacore T200, 25°C; borrelial protein immobilised by amine coupling (CMD200M chip); C1 as analyte, two-fold dilution series 0 to 150 nM, 2 min association, 3 min dissociation; HBS-T (20 mM HEPES pH 7.3, 140 mM NaCl, 0.005% Tween-20) with 5 mM CaCl2; 1:1 kinetic fit; triplicate
[3] = target: BBK32(206-348) (residues 206-348, B. burgdorferi strain B31) (Borrelia burgdorferi strain B31) (UniProt O50835); assay: as above
[4] = target: BBK32-C (residues 206-354, B. burgdorferi strain B31) (Borrelia burgdorferi strain B31) (UniProt O50835); assay: as above
[5] = target: BXK32-C (BBK32-C E308K-Q319K-E324Q) (Borrelia burgdorferi strain B31) (UniProt O50835); assay: as above

human C1r, full-length enzyme (human), sequence (P00736 18-705): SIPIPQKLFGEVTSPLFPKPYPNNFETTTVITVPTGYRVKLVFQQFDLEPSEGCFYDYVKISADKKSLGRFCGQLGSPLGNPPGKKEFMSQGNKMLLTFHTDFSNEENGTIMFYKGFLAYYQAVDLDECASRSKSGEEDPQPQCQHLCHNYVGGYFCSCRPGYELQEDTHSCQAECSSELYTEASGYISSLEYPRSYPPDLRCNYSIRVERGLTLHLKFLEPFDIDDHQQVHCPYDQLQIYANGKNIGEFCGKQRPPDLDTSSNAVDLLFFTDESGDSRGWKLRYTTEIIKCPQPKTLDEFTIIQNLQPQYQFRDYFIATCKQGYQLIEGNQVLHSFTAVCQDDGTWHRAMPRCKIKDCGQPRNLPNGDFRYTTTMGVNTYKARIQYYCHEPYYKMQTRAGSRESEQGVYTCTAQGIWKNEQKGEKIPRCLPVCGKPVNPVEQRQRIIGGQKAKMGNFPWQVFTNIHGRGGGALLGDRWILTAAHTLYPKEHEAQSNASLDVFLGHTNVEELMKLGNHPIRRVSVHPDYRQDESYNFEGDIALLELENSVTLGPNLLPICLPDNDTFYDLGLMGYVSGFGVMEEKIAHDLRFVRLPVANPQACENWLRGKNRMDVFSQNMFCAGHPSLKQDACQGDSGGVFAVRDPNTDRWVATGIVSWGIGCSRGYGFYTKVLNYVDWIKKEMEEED

Substance	IC50 of C3b deposition, classical pathway-specific ELISA with normal human serum [1] [nM]	IC50 of MAC deposition, classical pathway-specific ELISA with normal human serum [1] [nM]	IC50 of classical pathway hemolysis of sensitized sheep red blood cells by human serum [1] [nM]	Kd [2] [nM]	Kd [3] [nM]	koff [3] [s⁻¹]	Kd [4] [nM]	koff [4] [s⁻¹]	Kd [5] [nM]	koff [5] [s⁻¹]
BAD16-C (residues 204-352, B. afzelii strain PGau) (domain or fragment)	9.6	5.9	55	–	–	–	–	–	–	–
human C1 complex (from UniProt P02745 23-245; P02746 28-253; P02747 29-245)	–	–	–	5.4	5.6	0.00054	6	0.0005	4.7	3.8e-05

Reference: PMC6445466
